Measurements published in US20190106498A1, “TREATMENT FOR ACUTE MYELOID LEUKEMIA” (priority 2017, published 2019).

Assays:
AML = test: Phase I/II trial of ARGX-110 with AZA: clinical response; assay type: in vivo, human; conditions: for Time to best response: cycle/day
From the text: The study included a screening phase (between Day −35 and Day −14), a loading dose of ARGX-110 (Day −14) and an open-label treatment phase during which subjects visited the study center for administration of the study drug (Day −14 until disease progression), and end-of-treatment (EOT) evaluations performed within 7 days after the last ARGX-110 treatment. Additional follow-up evaluations were scheduled at 30 and 60 days (±7 days) after the EOT date. The 60-days follow-up visit was also the end-of-study (EOS) visit.
Clinical response to treatment was categorised according Table 3: […]

Numb = Numb expression in purified AML blasts of patients; assay type: in vivo, human; conditions: monotherapy at C1D1; combination at C4D1
Description: FIGS. 8A-8B Purified AML blasts (FACS gate: CD45^dim SSC^low AV^−CD4^−CD8^−CD19^−) were fixed, permeabilized and cells incubated overnight with α-Numb antibody, followed by staining with a fluorescently labeled secondary antibody. DAPI was used to counterstain for DNA. Samples were acquired on an ImageStreamX® Mark II imaging flow cytometer (Amnis/EMD Millipore) and analyzed using INSPIRE™ and IDEAS® software (Amnis/EMD Millipore). FIG. 8A) Total Numb expression (Mean fluorescence intensity) was determined across the slide for bone marrow samples of one patient harvested at baseline (“screening”), after ARGX-110 monotherapy (C1D1) and after combination treatment (C4D1). FIG. 8B) Symmetrically (SD) and asymmetrically dividing (AD) cells were scored for a bone marrow patient sample at baseline (“before”) and after ARGX-110 monotherapy (after αCD70).
The level of asymmetric division in a population of LSCs can be determined by measuring the level of a cell fate determinant such as the Numb protein (Riether et al., J Exp Med. 2017 February; 214(2): 359-380, incorporated herein by reference). Increased Numb expression is indicative of an increase in asymmetric division and therefore an increase in myeloid differentiation and decreased LSC populations.

[1] = Serum pharmacokinetics of ARGX-110 (ELISA); assay type: in vivo, human
Description: FIG. 11 The serum concentration of ARGX-110 was analyzed using a validated enzyme-linked immunosorbent assay (ELISA) method. Individual patient PK plots are provided for 10 mg/kg cohort. The PK plot presents data for ARGX-110 cycle1 (D-14 pre-dose until Cycle1 D1 pre-dose).
The serum concentrations of ARGX-110 were analysed using a validated enzyme-linked immunosorbent assay (ELISA) method. The following pharmacokinetic parameters were assessed: • Cmax: maximum observed concentration; Ctrough: trough concentration; AUC∞: area under the serum concentration-time curve from time zero to infinity; AUCtau: area under the serum concentration-time curve during the dosing interval; Vd: apparent volume of distribution; CL: total systemic clearance of drug after IV administration; t1/2: half-life.
The serum concentration of ARGX-110 was analysed using a validated enzyme-linked immunosorbent assay (ELISA) method. FIG. 11 provides individual patient PK plots for the 10 mg/kg cohort. The PK plot presents data for ARGX-110 cycle 1 (D-14 pre-dose until Cycle1 D1 pre-dose).

[2] = ARGX-110 concentration in bone marrow aspirates versus plasma; assay type: in vivo, human
Description: Concentration of ARGX-110 in bone marrow aspirates was measured in limited samples and compared to the matching plasma samples.

[3] = in vivo
Description: Subjects received a loading dose of ARGX-110 on Day −14, followed by administration of ARGX-110 in combination with standard doses of AZA. Doses of ARGX-110 were administered intravenously every 2 weeks (loading dose at Day −14 and further doses on Days 3 and 17) in combination with standard doses of AZA to determine the dose limiting toxicity (see FIG. 4). The first patient of each cohort was monitored until day 7 before a second patient was included. […] The ARGX-110 dose level in the first cohort in Phase I was 1 mg/kg body weight.
All subjects in the study received a single loading dose of ARGX-110 on Day −14, at the same dose level as the bi-weekly dose. Subjects in Phase I of the study received one of the following treatments: • Cohort 1: 1 mg/kg body weight IV on Days 3 and 17 of a 28-day cycle • Cohort 2: 3 mg/kg body weight IV on Days 3 and 17 of a 28-day cycle • Cohort 3: 10 mg/kg body weight IV on Days 3 and 17 of a 28-day cycle • Cohort 4: 20 mg/kg body weight IV on Days 3 and 17 of a 28-day cycle

[4] = system: CD70-expressing tumor cells; conditions: cited from earlier work
[5] = patients treated for sufficient time to assess response
[6] = patient 1001005, 3 mg/kg, Cycle 7 Day 2
[7] = patient 1001007, 10 mg/kg, Cycle 4 Day 1

B1: ARGX-110: IgG1 anti-CD70 antibody with defucosylated Fc region; VH SEQ ID NO: 4, VL SEQ ID NO: 8 (antibody, V domains shown)
VH: EVQLVESGGGLVQPGGSLRLSCAASGFTFSVYYMNWVRQAPGKGLEWVSDINNEGGTTYYADSVKGRFTISRDNSKNSLYLQMNSLRAEDTAVYYCARDAGYSNHVPIFDSWGQGTLVTVSS
VL: QAVVTQEPSLTVSPGGTVTLTCGLKSGSVTSDNFPTWYQQTPGQAPRLLIYNTNTRHSGVPDRFSGSILGNKAALTITGAQADDEAEYFCALFISNPSVEFGGGTQLTVLG
modifications: IgG1, defucosylated Fc; Custom antibody fragment
- Time to best response (AML; Cohort 1 (1 mg/kg) with AZA, one line per patient, 1 mg/kg): EOT
- Time to best response (AML; Cohort 2 (3 mg/kg) with AZA, one line per patient, 3 mg/kg): EOT
- Best response to date (AML; Cohort 4 (20 mg/kg) with AZA, one line per patient, 20 mg/kg): No response
- patients in each cohort showing complete remission (AML; each of the 1 mg/kg, 3 mg/kg and 10 mg/kg cohorts): 2 of the 3
- patients responding (response rate) (AML; [5]): more than 90%
- responding patients / assessed patients (AML; [5]): 10/11
- Numb expression (Numb): increased
- half-life ([1]; 10 mg/kg): approximately 9.2 days
- Cmax and AUC over the dose range studied ([1]; all cohorts): dose proportionality
- CARGX-110 BM aspirate [2, 6]: 33.1 µg/mL
- CARGX-110 plasma [2, 6]: 37.3 µg/mL
- CARGX-110 BM aspirate [2, 7]: 117.7 µg/mL
- CARGX-110 plasma [2, 7]: 126.6 µg/mL
- concentration in bone marrow aspirates versus plasma ([2]; patients 1001005 and 1001007): comparable to the plasma levels
- Lung infection, Grade 3-5 adverse events: Total [3]: 1
- Tooth Infection, Grade 3-5 adverse events: Total [3]: 1
- Lung infection, Grade 3-5 adverse events: (patients) ([3]; 1 mg/kg): 1 (1)
- Lung infection, Grade 3-5 adverse events: Events ([3]; 1 mg/kg): 1 (1)
- Tooth Infection, Grade 3-5 adverse events: (patients) ([3]; 3 mg/kg): 1 (1)
- Tooth Infection, Grade 3-5 adverse events: Events ([3]; 3 mg/kg): 1 (1)
- antibody dependent cellular phagocytosis (ADCP) [4]: increase antibody dependent cellular phagocytosis (ADCP) of CD70-expressing cells
- lysis via ADCC and CDC [4]: lyse CD70-expressing tumor cells
- ADCC functionality ([4]; defucosylated Fc (Potelligent)): increased ADCC functionality compared to a fucosylated counterpart
